Results from US20230348881.

B1: human MMP12 (matrix metalloproteinase-12) (protein)
chain: GPVWRKHYITYRINNYTPDMNREDVDYAIRKAFQVWSNVTPLKFSKINTGMADILVVFARGAHGDFHAFDGKGGILAHAFGPGSGIGGDAHFDEDEFWTTHSGGTNLFLTAVHEIGHSLGLGHSSDPKAVMFPTYKYVDINTFRLSADDIRGIQSLYG
B2: human MMP7 (protein)
chain: YSLFPNSPKWTSKVVTYRIVSYTRDLPHITVDRLVSKALNMWGKEIPLHFRKVVWGTADIMIGFARGAHGDSYPFDGPGNTLAHAFAPGTGLGGDAHFDEDERWTDGSSLGINFLYAATHELGHSLGMGHSSDPNAVMYPTYGNGDPQNFKLSQDDIKGIQKLYGKRSNSRKK

What was measured:
[1] = target: Mutant 2, modified PPE proprotein with the MMP12 cleavage site, PPE optimized (SEQ ID NO: 9)
Mutant 2, modified PPE proprotein with the MMP12 cleavage site, PPE optimized (SEQ ID NO: 9), sequence (chain, as listed by the source mutant): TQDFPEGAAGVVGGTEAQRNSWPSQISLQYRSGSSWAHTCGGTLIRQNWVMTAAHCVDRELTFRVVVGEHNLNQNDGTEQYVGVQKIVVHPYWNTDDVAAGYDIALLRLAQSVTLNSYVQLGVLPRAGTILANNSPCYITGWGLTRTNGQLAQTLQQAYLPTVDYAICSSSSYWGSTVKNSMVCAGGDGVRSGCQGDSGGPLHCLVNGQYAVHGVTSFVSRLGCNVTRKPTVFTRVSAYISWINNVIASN

[2] = target: wild-type PPE proprotein as used in Example 2
wild-type PPE proprotein as used in Example 2, sequence (chain, as listed by the source): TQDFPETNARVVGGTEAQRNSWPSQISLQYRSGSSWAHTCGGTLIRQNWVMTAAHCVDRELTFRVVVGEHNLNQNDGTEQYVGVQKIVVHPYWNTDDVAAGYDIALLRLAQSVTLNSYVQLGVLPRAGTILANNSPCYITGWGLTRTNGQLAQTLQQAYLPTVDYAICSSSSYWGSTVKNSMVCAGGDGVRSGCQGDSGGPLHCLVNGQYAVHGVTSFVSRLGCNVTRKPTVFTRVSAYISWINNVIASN

[3] = target: exemplary modified PPE proproteins
[4] = target: Mutant 3, modified PPE proprotein with the MMP12 cleavage site, balanced (SEQ ID NO: 10)
Mutant 3, modified PPE proprotein with the MMP12 cleavage site, balanced (SEQ ID NO: 10), sequence (chain, as listed by the source mutant): as the sequence (chain, as listed by the source) above, with T7G, N8A, R10G, V11L counted along it

Protein | protease cleavage by SDS-PAGE and Coomassie blue staining [1] | catalytic activity after protease digestion (colorimetric substrate assay), FIG. 4B [2] | catalytic activity after protease digestion (colorimetric substrate assay), FIG. 4B [3] | catalytic activity after protease digestion (colorimetric substrate assay, N-Methoxysuccinyl-Ala-Ala-Pro-Val p-nitroanilide), FIG. 4A [3] | protease cleavage by SDS-PAGE and Coomassie blue staining [4]
B1 | the MMP12 protease cleaved the exemplary modified PPE proteins designated as Mutant 2 (3A) | catalytically-inactive after incubation with MMP12 or no protease | catalytically-active after incubation with MMP12 | catalytically-active after incubation by MMP12, relative to the activity of the native PPE as a control | the MMP12 protease cleaved the exemplary modified PPE proteins designated as ... Mutant 3 (3B)
B2 | – | – | partially-catalytically-active after incubation with MMP7 | – | –
